# What was measured:
# [1] = tested on: hMPV F protein of rhMPV/NL/1/00/101S (RQSR cleavage motif)
# [2] = tested on: hMPV F protein of rhMPV/NL/1/99/101S (subtype B1)
# [3] = tested on: hMPV F protein of rhMPV/NL/1/00/101P (RQPR cleavage motif)
substance,measurement,setting,value
TPCK trypsin (Sigma),"cleavage of hMPV F (F0 to F1), Western blot",[1],hMPV F containing 101S was cleaved only when the protein was exposed to trypsin
same,"cleavage of vectored hMPV F (b/h PIV3), Western blot",[1],"In the presence of trypsin, the vectored F proteins of both hMPV/NL/1/00/101P and hMPV/NL/1/00/101S were partially cleaved to the same extent as the F protein expressed from the wt hMPV/NL/1/00"
same,"cleavage of hMPV F (F0 to F1), Western blot",[2],"hMPV F/101S showed no cleavage in the absence of trypsin, but in the presence of trypsin, the F1 fragment was readily detected"
same,"cleavage of vectored hMPV F (b/h PIV3), Western blot",[3],"In the presence of trypsin, the vectored F proteins of both hMPV/NL/1/00/101P and hMPV/NL/1/00/101S were partially cleaved to the same extent as the F protein expressed from the wt hMPV/NL/1/00"

# — US20100167270
